In the supplement of paper PMC12042874:
± gives the uncertainty stated by the source.

Assay: amyloid nucleation score (Sup35N fusion, yeast selection) (log enrichment); library NNK2; higher = more nucleation; inactive = no reads after selection
Method in brief: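 Sup35N fusions to peptides of 20 random codons were expressed in psi-negative yeast, induced 24 hours with 100 μM copper sulfate, and grown 7 days at 30°C on medium lacking adenine and uracil. Input and output plasmid inserts were sequenced by Illumina. The nucleation score is the DiMSum log enrichment of output over input reads, centred on the mode score of non-aggregating sequences. Sequences with under 100 input reads were excluded.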

Row | Substance | amyloid nucleation score
1 | SYYEWARGTSVVLIAFVTSF | -0.189 ± 0.48
2 | SYYGFLSFCSKTCMPLMWLE | -0.844 ± 0.54
3 | TADISLYLRHST | 6.442 ± 0.049
4 | TAFNIVSCSGLCSYYQFRF | 8.109 ± 0.03
5 | TAHYDVGC | -0.283 ± 1
6 | TANKLLVSIIKIEEYVSRGT | 4.73 ± 0.058
7 | TAWHFPCRQRDLQLVSKVTG | inactive
8 | TCCQDYLLIWYCMDSIRNVR | 9.611 ± 0.034
9 | TCKVRLRHVDYNCIMVLLLM | -0.359 ± 0.45
10 | TCLSQQCTEIEWIKFTPMSR | 4.31 ± 0.056
11 | TCSGWTWRQGLLVLSCRMIL | 0.287 ± 0.38
12 | TCSRERGRRWFGICASYSCE | 0.629 ± 0.47
13 | TCVALSYLVGGSALNS | -0.818 ± 0.78
14 | TCVCWGPCRSV | -0.895 ± 1
15 | TCVRWYGNIW | -0.424 ± 0.27
16 | TCYWRGLAGYR | 3.28 ± 0.14
17 | TDCMPMHVYGDYYLMGMSRE | -0.555 ± 0.33
18 | TDCRFIIVYMVIGSFLYTRV | -0.747 ± 1.1
19 | TDHMHKISRVHRDKKMSVGF | -0.707 ± 1.1
20 | TDLECKQLG | 1.88 ± 0.11
21 | TEELRRFCGSFCTGYISMVW | inactive
22 | TEIHNT | inactive
23 | TESGGSLYNPQLIPDIQGSH | -0.552 ± 1.1
24 | TFAIIRIII | 1.37 ± 0.33
25 | TFHGFMCGQTLRGPFRLSWW | 3.95 ± 0.088

Row | Substance | amyloid nucleation score
26 | TFKFWCVTKETEQHVSYASR | 4.54 ± 0.067
27 | TFLSHEGRGLRCLYYHMMPG | 3.79 ± 0.14
28 | TFLSSC | 0.096 ± 0.32
29 | TFLWKFMLNVTTFFIFPKPV | -1.77 ± 1
30 | TFMWVDSMP | -0.525 ± 0.48
31 | TFNIGNELVT | -0.99 ± 0.37
32 | TFNLKPRFLFV | 5.18 ± 0.087
33 | TFNLVILGVGHSHHFQRNNH | 8.269 ± 0.046
34 | TFRLRECWCDADLRVGVMSL | 0.778 ± 0.47
35 | TFRWCHCYLTKEHVRFTCRA | 1.55 ± 0.53
36 | TFSVQAVNLFSIWVLSGPGD | 8.02 ± 0.034
37 | TFTSRGMMSLGFGRR | 6.01 ± 0.08
38 | TFVGSFEILAGNVLCVNKTK | 6.031 ± 0.048
39 | TFVHIIHNFVGVQHFKKLGC | 5 ± 0.094
40 | TGAYI | -1.94 ± 0.75
41 | TGCDVLRIVTRMMGKNKRYF | -0.047 ± 1.1
42 | TGCNFHGRRFRCGYNGLGNP | -0.59 ± 0.37
43 | TGDMQVAVYCVILGGFSMGM | 4.44 ± 0.055
44 | TGFKCSLLTY | -0.91 ± 0.62
45 | TGGRNVHNCNNNHASSWPRC | -1.05 ± 0.76
46 | TGHWQLQNSSQA | 0.841 ± 0.28
47 | TGILMWAGLQVHV | 1.86 ± 0.13
48 | TGWSGRGMVKSDPYRACGGD | -0.11 ± 0.35
49 | TGYVTRIVAAFCSQKIFVWV | -0.547 ± 0.49
50 | THDKLHFLAFVFSPLFLTTM | inactive

Row | Substance | amyloid nucleation score
51 | THSHTSCKDASSEMRSPCNV | 0.264 ± 0.33
52 | THSNWTKNSVSSIYCIKILF | 6.647 ± 0.037
53 | THSWGFSLYTFLVYINLSYI | -0.545 ± 1
54 | THTGLGG | 0.654 ± 0.8
55 | THVRVEVLS | inactive
56 | THYNVGLINNIINNLILVYI | 4.52 ± 0.12
57 | TICDTLGYLTRSWYLSYESS | -0.545 ± 0.32
58 | TICWHGFNR | 0.119 ± 0.76
59 | TIFMAYTWLNYTVAFLSNVR | -1.01 ± 0.61
60 | TIFSHVYLALLR | 0.382 ± 0.8
61 | TIGANPRVLDG | 0.316 ± 0.39
62 | TIIIREQSKPFPCLE | 0.931 ± 0.74
63 | TIKTALMYIMRYSFRSYRDF | -1.02 ± 0.61
64 | TILCFCAC | 4.86 ± 0.056
65 | TIVWLGRPLYTGFKNTKRGH | inactive
66 | TIWRCFLT | 0.685 ± 0.33
67 | TKAYNTFLRPETVRLSESTK | 0.9 ± 0.18
68 | TKFMIYRDYSLVKSHH | inactive
69 | TKQPSFTCPGLSSRILRRLK | 3.04 ± 0.18
70 | TKTTWSDPGG | 0.922 ± 0.43
71 | TKVMQGVNSMARGV | 1.08 ± 0.39
72 | TKYDLHPMIVSFECDRHLMW | 0.411 ± 0.49
73 | TLAFCFFLTKLSVQCFLYPP | 0.241 ± 0.8
74 | TLCMSRGNSYCCMQSFSEKD | 5.05 ± 0.063
75 | TLCVAIMYMHLGYAL | 0.178 ± 0.5

Row | Substance | amyloid nucleation score
76 | TLCVGVFAHTAMRCRECHAA | 5.479 ± 0.043
77 | TLFLSNFRFRCRFPDHALIS | -1.3 ± 0.48
78 | TLFRSELFAV | 0.495 ± 0.56
79 | TLKLALEFLNEIYEEPVKCR | -1.36 ± 0.48
80 | TLKRSRPVLYNLYNGFVVVA | 2.25 ± 0.21
81 | TLLVKSMGGSLET | 4.11 ± 0.044
82 | TLLYKFTDCTVMMAIRVARR | 1.45 ± 0.52
83 | TLMYSQSAIDWTMSSPGRCR | 1.49 ± 0.36
84 | TLQMGQSMPSFFGLRWAVYR | 0.503 ± 0.43
85 | TLRVLCTVCYSMDRVAA | inactive
86 | TLSCKFIKGWLIQQYSHNKD | -0.187 ± 0.76
87 | TLSCSYVCAPTVYVQSSRPT | 1.27 ± 0.18
88 | TLSVTEGYSNLTSMWYGCKR | 3.23 ± 0.15
89 | TLTILRVTCPLFSDGIMFKR | 0.609 ± 0.47
90 | TLTNHWLRSLCITSKGTLSC | inactive
91 | TLTRGSISSIVDASWNMEKT | -0.061 ± 0.46
92 | TMELFLRRFYIWIKDIDNGR | inactive
93 | TMGYEFMQILLDLRNLSCSY | 3.64 ± 0.097
94 | TMHYYLWDSN | 4.88 ± 0.1
95 | TMILCRKYNASWMIVARNDL | -0.311 ± 1.1
96 | TMLETLRARADLMCQVWYSV | 0.964 ± 0.4
97 | TMWRVIGSVYFVKFFSATLG | -0.07 ± 0.43
98 | TNCTDEGIILCHP | -0.19 ± 1.1
99 | TNDASYSIDLWW | -0.304 ± 0.18
100 | TNDHQFCESNMRVMSEGIGP | -0.284 ± 1.1

Row | Substance | amyloid nucleation score
101 | TNHFN | -1.08 ± 0.61
102 | TNKKVVRYPSPLPERSYGMR | 0.012 ± 0.74
103 | TNPASAGTYSRSYEFCSLRL | 1.59 ± 0.18
104 | TNPSSKPAWVTSR | 0.007 ± 0.79
105 | TNRLMVEVALIFRSINCVNR | -0.561 ± 0.38
106 | TPATVEYGDNCVYDY | -0.987 ± 0.44
107 | TPENFHLR | inactive
108 | TPLDIICEIMNFIYNTVFRL | -0.501 ± 1.1
109 | TPLTVYDFPYNEGCCAV | 1.7 ± 0.34
110 | TPNQGNPSGYFFDNSFMKPF | inactive
111 | TPNYLSHTVVCVCINNVLIF | 4.74 ± 0.058
112 | TPRIS | 0.647 ± 0.8
113 | TPTGSVLAYRVTISTKVVSL | 1.09 ± 0.38
114 | TPTYLRYIVVIYL | 2.41 ± 0.11
115 | TPVWVGVSLVPPIAPTTWIN | 0.288 ± 0.28
116 | TQLASIQPSVPCYIVYTVGL | 3.01 ± 0.085
117 | TQLTDASSELLPPGSRLQCS | 1.03 ± 0.36
118 | TQSIALINTRVELTVDEFSF | -0.111 ± 0.65
119 | TQVLYSSCFVVVLSYLSRQD | 4.51 ± 0.086
120 | TRASYFCQSTANYSVSRSNM | 1.8 ± 0.3
121 | TRFFTSLK | -0.402 ± 0.61
122 | TRFLPDAY | -0.903 ± 0.32
123 | TRFRRDESRTSEDLRPRNRR | 1.26 ± 0.23
124 | TRMMCKRFRIML | 0.544 ± 0.49
125 | TRSSNNPPGMVDT | -0.959 ± 0.38

Row | Substance | amyloid nucleation score
126 | TRWSHK | inactive
127 | TSCSTTAALEVNIRMTDVGV | 1.59 ± 0.14
128 | TSESSV | -0.36 ± 0.64
129 | TSFNQELEFFLCGGDVDCNR | -1.17 ± 1.1
130 | TSGQHD | -0.133 ± 0.61
131 | TSISYLRVYTRSFMRSLSGL | inactive
132 | TSLTQDLEMVLSFNFCMGLA | -0.158 ± 0.44
133 | TSLYRVSKM | -0.945 ± 0.76
134 | TSMSYLLRFVCGFRCTYSLC | 0.854 ± 0.52
135 | TSMVNSFYKTRGTIK | inactive
136 | TSSMTNERDNLILV | -0.187 ± 0.42
137 | TSSYTWGVEPDASRTILVDT | 0.4 ± 0.32
138 | TSTLNRDDG | 0.367 ± 0.34
139 | TSYACRVIAMRVVCPCRQLR | inactive
140 | TTAWSVEINGTMRNDDMSAS | 2.2 ± 0.091
141 | TTFILNMMLYNSCTYVYMSL | 8.549 ± 0.073
142 | TTGRWVVLRG | 0.342 ± 0.39
143 | TTLRPLYSTWGSQMVFPGLC | 0.409 ± 0.8
144 | TTMSTGARGLSRCLSVVFRR | 3.08 ± 0.12
145 | TTMYARFIFIVRDSEGMYCS | 7.089 ± 0.064
146 | TTQDHFFSL | inactive
147 | TTRSNEKIVFHGWTSVINRH | -0.696 ± 0.76
148 | TTTQKGCGVYVAREVSWGLG | 2.56 ± 0.093
149 | TTTWGENLFASNYLLSKTAG | -0.088 ± 1.1
150 | TTVKYG | 0.553 ± 0.22

Row | Substance | amyloid nucleation score
151 | TTVSWENGSRVINIVFILMF | 5.045 ± 0.04
152 | TTVSYISERFTYLGSL | 3.84 ± 0.12
153 | TVAWTSRLFSLAGLLHFDR | 4.82 ± 0.062
154 | TVFDRNMDTGIMCIVMSWDN | -0.318 ± 0.48
155 | TVFFIVPLCSLLDKVNSLGA | 3.34 ± 0.086
156 | TVFSIMLLSRM | -0.002 ± 1
157 | TVFSYSWQFYGMHSISDYMI | inactive
158 | TVIGFRDRDSWSMEMIEDHC | -0.272 ± 0.43
159 | TVKCLYMGNGAWKTASSVCG | 0.482 ± 0.38
160 | TVLGTCPVNKVVDNSREAGS | 1.36 ± 0.49
161 | TVLILPPHTRSDINFMVHYT | 4.43 ± 0.063
162 | TVPRFEKHFRAVVNLLGRND | 0.277 ± 0.46
163 | TVSMNMRCCVECHYIKERYL | 4.16 ± 0.051
164 | TVSNR | -1.27 ± 0.37
165 | TVSRLYEYWLLRMCIY | -0.413 ± 1
166 | TVVSVGVVRVHATLRVKESG | 5.661 ± 0.056
167 | TVWGYSSDLKLLEFISIGTQ | 2.71 ± 0.12
168 | TWDSRYGVACLV | -0.325 ± 0.33
169 | TWFCVGKVASSMWVYQGVNF | 0.662 ± 0.52
170 | TWFRSVMYPDLSHFYMF | inactive
171 | TWNSANFFIKLRQSVFYLSR | -1.46 ± 1.1
